{"source": "patent US12332249B1", "about": "“Biomolecule detection method using diffusion ordered spectroscopy” (KUWAIT UNIVERSITY, priority 2024, dated 2025)", "key": {"[1]": {"details": "aqueous native avidin; cited from earlier work"}, "[2]": {"assay": "Hydrodynamic radius from DOSY diffusion coefficient by Stokes-Einstein equation", "assay_type": "physicochemical", "details": "obtained using Equation 2 (Stokes-Einstein)", "method": "According to Stokes-Einstein equation mentioned below, the diffusion coefficient of solutes is directly linked to the hydrodynamic radius.\nWhere Rh is the hydrodynamic radius, kB is the Boltzmann constant, T is the temperature in K and η is the solution viscosity ([…] for D2O, and 30° C.) and D is the diffusion coefficient. The diffusion coefficient value is directly proportional to the temperature (T) and inversely proportional to the hydrodynamic radius. Thus, the hydrodynamic radius is related to the molecular weight, the higher the molecular weight, the larger the radius, the lower the diffusion and vice versa."}}, "data": [{"substance": "avidin: protein with four identical subunits, each containing one binding site for biotin; from Sigma Aldrich", "values": [{"measurement": "hydrodynamic radius by dynamic light scattering (DLS)", "setting": "[1]", "value": "26.4±0.3", "unit": "Å"}, {"measurement": "hydrodynamic radius (Rh)", "setting": "[2]", "value": 22.02, "unit": "Å"}]}]}
